Test results reported in the supplement of paper PMC9732359.
± gives the uncertainty stated by the source.

Experiment: protein stability index of a GFP-peptide fusion (yeast GPS) (PSI 1-4); higher = more stable; sorted into four equal gates, so the index is relative within each strain
Details: doa10∆
How it was run: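 Tiled 17-residue yeast protein peptides were fused downstream of GFP in a plasmid that also expresses Cherry, and the pooled library was carried in yeast. Mid-log cultures in leucine-free medium were sorted into four equal gates by GFP/Cherry fluorescence ratio, and plasmids from each gate were PCR-amplified and Illumina-sequenced, with reads assigned to strains by barcodes. The protein stability index for each peptide was each gate's read frequency times its gate number, summed.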

| Sequence | protein stability index |
| --- | --- |
| VAIQQGDIKPEFSPRLH [YML103C/NUP188] | 2.45 ± 0.11 |
| VAKTAPNSNKTHTEQNN [SNF2] | 2.82 ± 0.04 |
| VAKVDEEGRAIPGEYIT [RPS21B] | 2.5 ± 0.095 |
| VANSPNKRLDVIDGKLP [YDL088C/ASM4] | 3.03 ± 0.068 |
| VAQLKPFFKYIDDANVT [RPC37] | 2.81 ± 0.078 |
| VARTFWASKYGQEYPRI [BRR2] | 2.42 ± 0.15 |
| VATNIVNEDPIFHPMIH [YML103C/NUP188] | 2.53 ± 0.046 |
| VCGIIVKQEDMPFNDQG [RET1] | 3.06 ± 0.16 |
| VDAYRRLENKLSEIESL [SRP68] | 1.4 ± 0.078 |
| VDDLRPEFAGYSKAAEP [ASC1] | 3.18 ± 0.23 |
| VDDSMELCGQIRSERFK [ITC1] | 2.84 ± 0.072 |
| VDEPMTSAVELGAIEQI [YJL039C/NUP192] | 3.41 ± 0.3 |
| VDINRLKKGEVSLGTSI [PRE3] | 2.21 ± 0.098 |
| VDKELLEPGCSVLLHHK [RPT2] | 2.95 ± 0.16 |
| VDKIFEKVNNNATLTPN [SWI1] | 3.09 ± 0.079 |
| VDLTSSNFADSADYEIL [YDL116W/NUP84] | 2.84 ± 0.087 |
| VDQGQIYRDRSTFTKHL [ITC1] | 3.2 ± 0.06 |
| VDSRTKIRMLTQAAEFL [IRR1] | 2.47 ± 0.11 |
| VDVQAPTDDKTLKPTFS [YOR098C/NUP1] | 3.05 ± 0.15 |
| VEDALDKDSTKEVASLP [FAS2] | 3.15 ± 0.13 |
| VEDTLHVNKRKRVSGTS [YOR098C/NUP1] | 1.42 ± 0.078 |
| VEIEKRILKLGTQLATL [YGR119C/NUP57] | 2.11 ± 0.23 |
| VEILFEAGASAELDDCR [RPO21] | 2.94 ± 0.14 |
| VEKRIGKIVSQRGKWNL [RGR1] | 2.88 ± 0.065 |
| VENIERVVMMKYDRKVP [RPO21] | 2.29 ± 0.17 |

| Sequence | protein stability index |
| --- | --- |
| VESQFSAGRLYACISSR [RPS8A] | 2.08 ± 0.11 |
| VEYLDVNEENDSYIALY [RET1] | 2.97 ± 0.14 |
| VEYVDPTVNRVPNYEVS [RPN7] | 3.37 ± 0.26 |
| VFFDDDPLYDITKVPAL [REC8] | 2.47 ± 0.063 |
| VFQLPTRLPAFERPAVK [RPC53] | 3.01 ± 0.093 |
| VFVNTGLQNVRKVRTKK [SWP82] | 2.51 ± 0.16 |
| VGCIFAELIGLQPIFKG [SSN3] | 3.02 ± 0.085 |
| VGEEETSQKMKKMVYVL [SRP54] | 3.31 ± 0.11 |
| VGEKLVVVVLEEPSASI [SIR3] | 3.07 ± 0.076 |
| VGGKSTVQNEILGDLGK [FAS2] | 3.02 ± 0.075 |
| VGGQFSKVQFDAKTSYP [REC8] | 3.19 ± 0.095 |
| VGKLFRVGVVSILEAGD [RPL30] | 1.99 ± 0.097 |
| VGLVMFSQFWYWFPLAH [RPN2] | 1.52 ± 0.078 |
| VGVGKLNKLYGGAKSRG [RPS19A] | 3.29 ± 0.066 |
| VHDKILEDLVFPTEIVG [RPS7A] | 3.3 ± 0.13 |
| VHTIIAGLDEDGKGAVY [PRE7] | 3.63 ± 0.16 |
| VHVQLLINLKISPLMKS [SRB8] | 1.44 ± 0.058 |
| VIDGKLPFMQNAGPNSN [YDL088C/ASM4] | 2.93 ± 0.049 |
| VIELPLKNPEIFQRVGI [RPT4] | 2.17 ± 0.11 |
| VILAKNENETRDKVCKQ [PGD1] | 3.45 ± 0.18 |
| VISTIENVLFYIGRVNK [COB] | 1.92 ± 0.069 |
| VKAFLSIFEDAIKELNY [NUT1] | 2.04 ± 0.091 |
| VKCKMSALQQIMYQQML [SNF2] | 2.8 ± 0.11 |
| VKDELMFSPLVDSGSND [RPO21] | 3.11 ± 0.065 |
| VKDKQSKVSDDSESESG [RPN8] | 1.97 ± 0.11 |

| Sequence | protein stability index |
| --- | --- |
| VKGETRIQNRVKLGLNS [PRP8] | 2.08 ± 0.16 |
| VKIGDIEKWTANLLPAR [RPS22A] | 2.19 ± 0.076 |
| VKKPHRYKPGTVALREI [HHT1] | 3.15 ± 0.14 |
| VKLMKNITDYETHPDNS [BRR2] | 2.37 ± 0.054 |
| VKNKYNVGKQLSNEIIY [PRP28] | 2.35 ± 0.062 |
| VKNNQELDQEYRSCETQ [SMC4] | 2.95 ± 0.2 |
| VKSEVDVQVDAEEKREA [ITC1] | 3.22 ± 0.17 |
| VKSLVDNMITGVTKGYK [RPL9A] | 2.75 ± 0.081 |
| VKTSPDAKKCIAACTGV [FAS1] | 2.41 ± 0.12 |
| VKVKVSYQKLLKNYVLN [PRP8] | 1.33 ± 0.043 |
| VKVQPEGKYIVDVAKDI [RPT6] | 3.35 ± 0.12 |
| VKYINFGKTVKDGPFYT [RPC31] | 3 ± 0.1 |
| VLDKMHARARGPRAVLT [RET1] | 2.88 ± 0.11 |
| VLEKKTRQASDLASSKE [RPN5] | 3.38 ± 0.23 |
| VLESHWKQDLTKEEAIK [PUP1] | 2.71 ± 0.18 |
| VLGFLQLFHNLISIHSR [YJL039C/NUP192] | 2.67 ± 0.068 |
| VLLDARDIEKITSLYAL [CDC53] | 1.69 ± 0.038 |
| VLNCLRTMYFILDGQDV [YJR042W/NUP85] | 1.87 ± 0.083 |
| VLNQQLPIESQFVSKLV [BRR2] | 1.74 ± 0.066 |
| VLPKIFNSVKSFDEWFN [SNF2] | 2.83 ± 0.18 |
| VLPLGSVPEGTIVSNVE [RPL2A] | 3.19 ± 0.12 |
| VLRKQKRYTVKKALAKA [RPL14A] | 2.08 ± 0.14 |
| VLRLKPGRKYTTLGKLS [RPL16A] | 2.83 ± 0.047 |
| VLTQLTALALKYLIKYN [CSI1] | 2.37 ± 0.11 |

Same assay, conditions: pdr5∆

| Sequence | protein stability index |
| --- | --- |
| VAIQQGDIKPEFSPRLH [YML103C/NUP188] | 2.84 ± 0.096 |
| VAKTAPNSNKTHTEQNN [SNF2] | 3.07 ± 0.052 |
| VAKVDEEGRAIPGEYIT [RPS21B] | 2.52 ± 0.12 |
| VANSPNKRLDVIDGKLP [YDL088C/ASM4] | 2.8 ± 0.067 |
| VAQLKPFFKYIDDANVT [RPC37] | 2.9 ± 0.07 |
| VARTFWASKYGQEYPRI [BRR2] | 2.38 ± 0.17 |
| VATNIVNEDPIFHPMIH [YML103C/NUP188] | 2.63 ± 0.045 |
| VCGIIVKQEDMPFNDQG [RET1] | 2.87 ± 0.24 |
| VDAYRRLENKLSEIESL [SRP68] | 1.48 ± 0.073 |
| VDDSMELCGQIRSERFK [ITC1] | 3 ± 0.067 |
| VDEPMTSAVELGAIEQI [YJL039C/NUP192] | 3.66 ± 0.17 |
| VDINRLKKGEVSLGTSI [PRE3] | 1.55 ± 0.063 |
| VDKELLEPGCSVLLHHK [RPT2] | 2.8 ± 0.095 |
| VDKIFEKVNNNATLTPN [SWI1] | 3.08 ± 0.073 |
| VDLTSSNFADSADYEIL [YDL116W/NUP84] | 3.12 ± 0.098 |
| VDQGQIYRDRSTFTKHL [ITC1] | 3.33 ± 0.067 |
| VDSRTKIRMLTQAAEFL [IRR1] | 2.96 ± 0.084 |
| VDVQAPTDDKTLKPTFS [YOR098C/NUP1] | 3.23 ± 0.18 |
| VEDTLHVNKRKRVSGTS [YOR098C/NUP1] | 1.92 ± 0.13 |
| VEFNRKVVIPNLLCYYN [RPN3] | 1.67 ± 0.22 |
| VEIEKRILKLGTQLATL [YGR119C/NUP57] | 1.22 ± 0.14 |
| VEILFEAGASAELDDCR [RPO21] | 3.44 ± 0.15 |
| VEKRIGKIVSQRGKWNL [RGR1] | 2.96 ± 0.049 |
| VENIERVVMMKYDRKVP [RPO21] | 2.67 ± 0.2 |

| Sequence | protein stability index |
| --- | --- |
| VERGRVGACTDEEMTIS [RRP43] | 3.08 ± 0.23 |
| VESQFSAGRLYACISSR [RPS8A] | 2.65 ± 0.097 |
| VEYLDVNEENDSYIALY [RET1] | 3.08 ± 0.19 |
| VEYVDPTVNRVPNYEVS [RPN7] | 3.2 ± 0.16 |
| VFFDDDPLYDITKVPAL [REC8] | 2.92 ± 0.082 |
| VFQLPTRLPAFERPAVK [RPC53] | 2.89 ± 0.072 |
| VFVNTGLQNVRKVRTKK [SWP82] | 2.35 ± 0.096 |
| VGCIFAELIGLQPIFKG [SSN3] | 2.42 ± 0.097 |
| VGEEETSQKMKKMVYVL [SRP54] | 3.38 ± 0.11 |
| VGEKLVVVVLEEPSASI [SIR3] | 2.94 ± 0.087 |
| VGGKSTVQNEILGDLGK [FAS2] | 2.92 ± 0.1 |
| VGGQFSKVQFDAKTSYP [REC8] | 3.17 ± 0.094 |
| VGKLFRVGVVSILEAGD [RPL30] | 1.36 ± 0.093 |
| VGLVMFSQFWYWFPLAH [RPN2] | 1.39 ± 0.072 |
| VGVGKLNKLYGGAKSRG [RPS19A] | 3.39 ± 0.1 |
| VHDKILEDLVFPTEIVG [RPS7A] | 3.15 ± 0.076 |
| VHTIIAGLDEDGKGAVY [PRE7] | 3.41 ± 0.099 |
| VHVQLLINLKISPLMKS [SRB8] | 1.59 ± 0.048 |
| VIDGKLPFMQNAGPNSN [YDL088C/ASM4] | 3.04 ± 0.054 |
| VIELPLKNPEIFQRVGI [RPT4] | 2.16 ± 0.21 |
| VILAKNENETRDKVCKQ [PGD1] | 2.96 ± 0.12 |
| VISTIENVLFYIGRVNK [COB] | 1.89 ± 0.052 |
| VKAFLSIFEDAIKELNY [NUT1] | 1.73 ± 0.087 |
| VKCKMSALQQIMYQQML [SNF2] | 2.56 ± 0.14 |

| Sequence | protein stability index |
| --- | --- |
| VKDELMFSPLVDSGSND [RPO21] | 3.17 ± 0.053 |
| VKDKQSKVSDDSESESG [RPN8] | 2.78 ± 0.13 |
| VKGETRIQNRVKLGLNS [PRP8] | 2.7 ± 0.15 |
| VKIGDIEKWTANLLPAR [RPS22A] | 2.65 ± 0.095 |
| VKKPHRYKPGTVALREI [HHT1] | 3.17 ± 0.1 |
| VKLMKNITDYETHPDNS [BRR2] | 2.42 ± 0.042 |
| VKNKYNVGKQLSNEIIY [PRP28] | 2.6 ± 0.069 |
| VKSEVDVQVDAEEKREA [ITC1] | 2.97 ± 0.21 |
| VKSLVDNMITGVTKGYK [RPL9A] | 3.31 ± 0.14 |
| VKTSPDAKKCIAACTGV [FAS1] | 3.02 ± 0.16 |
| VKVKVSYQKLLKNYVLN [PRP8] | 1.36 ± 0.035 |
| VKVQPEGKYIVDVAKDI [RPT6] | 3.14 ± 0.17 |
| VKYINFGKTVKDGPFYT [RPC31] | 2.84 ± 0.085 |
| VLDKMHARARGPRAVLT [RET1] | 3.22 ± 0.11 |
| VLEKKTRQASDLASSKE [RPN5] | 3.41 ± 0.15 |
| VLESHWKQDLTKEEAIK [PUP1] | 3.15 ± 0.13 |
| VLGFLQLFHNLISIHSR [YJL039C/NUP192] | 2.89 ± 0.059 |
| VLLATWNLEKWREIIEK [IRR1] | 3.14 ± 0.16 |
| VLLDARDIEKITSLYAL [CDC53] | 1.99 ± 0.034 |
| VLNCLRTMYFILDGQDV [YJR042W/NUP85] | 1.42 ± 0.091 |
| VLNQQLPIESQFVSKLV [BRR2] | 1.98 ± 0.048 |
| VLPKIFNSVKSFDEWFN [SNF2] | 2.43 ± 0.078 |
| VLPLGSVPEGTIVSNVE [RPL2A] | 3.33 ± 0.11 |
| VLRKQKRYTVKKALAKA [RPL14A] | 2.14 ± 0.1 |
